The values that follow come from patent US20240352156A1 (BIOGRAPH 55, published 2024).

The target in test [1] is T1, CD38 on cells (CD38-transfected HEK293, Daudi, REH) (human, UniProt P28907 1-300).
T1 construct: whole, on cells; also called HEK293-CD38
As to the kind of experiment: flow cytometry on CD38-transfected HEK293 cells, MFI against test article concentration. A general note: A flow cytometer gives signals particle by particle.

In test [2] the target is T2, CD38 (antigen in solution, Octet assays) (human, UniProt P28907 43-300, limits assumed).
T2 construct: also called Cluster of Differentiation 38; ADPRC1
As to the kind of experiment: BLI (OctetRed96), antibody on anti-hIgG Fc capture sensor.
Experimental: (§1) The binding affinities of parental and bispecific antibodies were determined using bio-layer interferometry. Binding experiments were performed on OctetRed96 at 25° C. using an assay Buffer consisting of 0.1% BSA, 1×PBS, 0.02% Tween-20, 0.05% NaN3. The antibodies were loaded onto Anti-hIgGFc Capture biosensors for 300 seconds. The ligand-loaded sensors were dipped into a series dilution (starting at 300 nM: two-fold series dilution for CD19 and three-fold series dilution for CD38) of the antigens for association (200 seconds for CD19 and 150 seconds for CD38) followed by dissociation (600 seconds for CD19 and 400 seconds for CD38). Kinetic constants were calculated using a monovalent (1:1) binding model.

Test [3] deals with T3, CD19 (antigen in solution, Octet assays) (human, UniProt P15391 20-291, limits assumed).
T3 construct: also called Cluster of Differentiation 19; B4
T3 sequence (looked up): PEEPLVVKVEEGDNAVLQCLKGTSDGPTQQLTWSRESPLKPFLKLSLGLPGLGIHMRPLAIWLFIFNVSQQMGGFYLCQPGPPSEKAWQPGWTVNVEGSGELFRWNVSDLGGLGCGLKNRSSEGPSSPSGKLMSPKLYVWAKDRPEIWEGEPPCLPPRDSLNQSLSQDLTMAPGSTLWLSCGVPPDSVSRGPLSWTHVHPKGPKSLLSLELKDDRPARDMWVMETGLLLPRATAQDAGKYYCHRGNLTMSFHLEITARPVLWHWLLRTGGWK
The test is described as above.
Experimental: as §1

B1: 851A = anti-CD19 3C10 (antibody, V domains shown)
VH: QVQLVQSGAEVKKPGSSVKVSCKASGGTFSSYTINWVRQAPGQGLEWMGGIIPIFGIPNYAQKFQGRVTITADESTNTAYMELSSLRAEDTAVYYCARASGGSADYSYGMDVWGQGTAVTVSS
VL: DIQMTQSPSSLSASVGDRVTITCRASQGISSWLAWYQQKPEKAPKSLIYAASSLQSGVPSRFSGSGSGTDFTLTISSLQPEDFATYYCQQYKRYPYTFGQGTKLEIKR
notes: captured by anti-human IgG Fc
Take B1: the binding result in test [1] is listed as “no binding (tested: 133 nM)”; in test [2] it was “no binding (tested: antigen dilutions starting at 300 nM)”.

B2: 851C = anti-CD38 003 heavy chain & anti-CD19 3C10 light chain (antibody, V domains shown)
VH: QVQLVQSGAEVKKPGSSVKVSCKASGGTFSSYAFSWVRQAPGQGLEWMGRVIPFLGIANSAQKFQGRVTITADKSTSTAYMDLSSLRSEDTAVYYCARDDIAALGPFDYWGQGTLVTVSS
VL: B1 VL
B2: the binding result in test [3] is recorded as “no binding (tested: antigen dilutions starting at 300 nM)”.
